Source: patent publication US20060099643A1, “Method for determining the regulation of xenobiotic removal” (priority 2002, published 2006)

T1: SXR (Homo sapiens, UniProt O75469)
T1 sequence (O75469 1-434): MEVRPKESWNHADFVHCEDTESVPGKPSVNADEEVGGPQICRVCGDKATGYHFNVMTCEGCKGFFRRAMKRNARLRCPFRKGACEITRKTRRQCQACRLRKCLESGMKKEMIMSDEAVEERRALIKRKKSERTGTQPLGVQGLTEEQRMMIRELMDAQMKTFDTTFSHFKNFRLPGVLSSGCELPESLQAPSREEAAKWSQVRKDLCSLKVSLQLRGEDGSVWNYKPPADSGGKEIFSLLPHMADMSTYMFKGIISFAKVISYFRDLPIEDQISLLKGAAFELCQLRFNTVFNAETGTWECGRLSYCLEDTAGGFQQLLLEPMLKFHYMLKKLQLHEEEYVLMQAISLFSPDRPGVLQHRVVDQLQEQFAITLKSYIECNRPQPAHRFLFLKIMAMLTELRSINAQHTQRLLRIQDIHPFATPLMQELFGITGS

T2: ER-α (UniProt P03372 297-554, limits assumed)
T2 construct: also called estrogen receptor alpha
T2 sequence (looked up): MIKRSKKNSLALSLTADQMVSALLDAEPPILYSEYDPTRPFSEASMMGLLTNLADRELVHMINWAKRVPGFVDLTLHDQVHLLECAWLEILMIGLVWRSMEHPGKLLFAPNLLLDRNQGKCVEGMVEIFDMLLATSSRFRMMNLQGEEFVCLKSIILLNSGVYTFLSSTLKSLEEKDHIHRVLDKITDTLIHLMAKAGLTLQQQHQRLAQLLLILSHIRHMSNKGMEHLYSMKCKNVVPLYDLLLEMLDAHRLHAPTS

T3: SXR (UniProt O75469 130-434, limits assumed)
T3 construct: also called steroid and xenobiotic receptor; steroid X receptor
T3 sequence (looked up): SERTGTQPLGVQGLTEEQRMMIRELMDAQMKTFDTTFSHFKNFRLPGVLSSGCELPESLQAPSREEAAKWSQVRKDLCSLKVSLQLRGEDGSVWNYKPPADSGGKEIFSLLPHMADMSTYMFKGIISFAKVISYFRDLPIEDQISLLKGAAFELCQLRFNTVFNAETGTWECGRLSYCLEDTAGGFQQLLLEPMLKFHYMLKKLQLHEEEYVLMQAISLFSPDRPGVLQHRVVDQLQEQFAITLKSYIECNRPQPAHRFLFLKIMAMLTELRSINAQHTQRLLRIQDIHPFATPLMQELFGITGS


Legend:
SXR [1] = biological target: T1, SXR; assay: Microplate thermal shift assay (Thermofluor) of SXR with ligands, co-activator peptide SRC1-NR2 and co-repressor peptide NCoR-1; settings: for ΔΔTm SRC1-NR2 / ΔTm ligand: SXR 6 μM, ligand 50 μM; for ΔΔTm SRC1-NR2: co-activator peptide SRC1-NR2 100 μM, change from the receptor-ligand ΔTm; for ΔTm ligand: average of four experiments; for Probability Agonist (statistical probability of agonist state): computed from affinities derived from ΔΔTm with co-regulator peptides (FIG. 3); for ΔTm at 100 µM: read-out: ΔΔTm NcoR1-NR2
Experimental: A 2 μL ligand solution at 2 times the final concentration was dispensed with a micropipette into a 384 well black wall Greiner plate. Then, 2 μL of the protein dye solution was dispensed on top of the ligand solution in the 384 well plate. The plates were spun to ensure mixing of the protein-dye and ligand solutions followed by layering of 1 μL of silicone oil to prevent evaporation during heating of the samples. […] The values for the co-regulators represent a change in Tm stabilization from the receptor-ligand ΔTm values.

SXR [2] = biological target: T1, SXR; settings: from Ekins & Erickson, Drug Metabolism and Disposition, 30, 96-99 and references therein; cited from earlier work
ER-β [3] = biological target: T4, ER-β (UniProt Q92731 256-505, limits assumed); assay: Thermofluor thermal shift; ER-β 8 µM with estradiol 20 µM; peptide 100 µM
T4 construct: also called estrogen receptor beta
T4 sequence (Q92731 256-505 limits assumed): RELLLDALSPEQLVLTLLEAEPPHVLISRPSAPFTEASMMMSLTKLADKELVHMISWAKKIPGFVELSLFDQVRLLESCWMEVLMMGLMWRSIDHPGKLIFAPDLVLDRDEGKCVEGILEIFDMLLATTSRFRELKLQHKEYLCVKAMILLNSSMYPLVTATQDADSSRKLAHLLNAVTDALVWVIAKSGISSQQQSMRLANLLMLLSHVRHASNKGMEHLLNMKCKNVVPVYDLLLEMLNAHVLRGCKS

ER-α [4] = biological target: T2, ER-α; assay: Thermofluor thermal shift; ER-α 8 µM with estradiol 20 µM; peptide 100 µM
SXR [5] = biological target: T3, SXR; assay: Thermofluor thermal shift; SXR 6 µM, ligand free; peptide 100 µM
ER-β [6] = biological target: T4, ER-β; assay: Thermofluor thermal shift; ER-β 8 µM with 17-α-ethylene-E2 20 µM; peptide 100 µM
SXR [7] = biological target: T3, SXR; assay: Thermofluor thermal shift; SXR 6 µM with corticosterone 50 µM; peptide 100 µM
SXR [8] = biological target: T3, SXR; assay: Thermofluor thermal shift; SXR 6 µM with 11-α-hydroxy-progesterone 50 µM; peptide 100 µM
ER-α [9] = biological target: T2, ER-α; assay: Thermofluor thermal shift; ER-α 8 µM, no ligand; peptide 100 µM
ER-α [10] = biological target: T2, ER-α; assay: Thermofluor thermal shift; ER-α 8 µM with 2-methoxy-E2 20 µM; peptide 100 µM
SXR [11] = biological target: T3, SXR; assay: Thermofluor thermal shift; SXR 6 µM with cortisone 50 µM; peptide 100 µM
ER-α [12] = biological target: T2, ER-α; assay: Thermofluor thermal shift; ER-α 8 µM with 4-OH-tamoxifen 20 µM; peptide 100 µM
SXR [13] = biological target: T3, SXR; assay: Thermofluor thermal shift; SXR 6 µM with clofibrate 50 µM; peptide 100 µM
SXR [14] = biological target: T3, SXR; assay: Thermofluor thermal shift; SXR 6 µM with androsterone 50 µM; peptide 100 µM
ER-β [15] = biological target: T4, ER-β; assay: Thermofluor thermal shift; ER-β 8 µM with 4-OH-tamoxifen 20 µM; peptide 100 µM
SXR [16] = biological target: T3, SXR; assay: Thermofluor thermal shift; SXR 6 µM with estradiol 50 µM; peptide 100 µM
ER-β [17] = biological target: T4, ER-β; assay: Thermofluor thermal shift; ER-β 8 µM with ICI-182780 20 µM; peptide 100 µM
SXR [18] = biological target: T3, SXR; assay: Thermofluor thermal shift; SXR 6 µM with hydrocortisone 50 µM; peptide 100 µM
ER-α [19] = biological target: T2, ER-α; assay: Thermofluor thermal shift; ER-α 8 µM with tamoxifen 20 µM; peptide 100 µM
ER-β [20] = biological target: T4, ER-β; assay: Thermofluor thermal shift; ER-β 8 µM with tamoxifen 20 µM; peptide 100 µM
ER-α [21] = biological target: T2, ER-α; assay: Thermofluor thermal shift; ER-α 8 µM with ICI-182780 20 µM; peptide 100 µM
ER-α [22] = biological target: T2, ER-α; assay: Thermofluor thermal shift; ER-α 8 µM with estrone 20 µM; peptide 100 µM
ER-β [23] = biological target: T4, ER-β; assay: Thermofluor thermal shift; ER-β 8 µM, no ligand; peptide 100 µM
ER-α [24] = biological target: T2, ER-α; assay: Thermofluor thermal shift; ER-α 8 µM with 17-α-ethylene-E2 20 µM; peptide 100 µM
SXR [25] = biological target: T3, SXR; assay: Thermofluor thermal shift; SXR 6 µM with lithocholic acid 50 µM; peptide 100 µM
SXR [26] = biological target: T3, SXR; assay: Thermofluor thermal shift; SXR 6 µM with lovastatin 50 µM; peptide 100 µM
ER-β [27] = biological target: T4, ER-β; assay: Thermofluor thermal shift; ER-β 8 µM with 2-methoxy-E2 20 µM; peptide 100 µM
SXR [28] = biological target: T3, SXR; assay: Thermofluor thermal shift; SXR 6 µM with 4-androstene 50 µM; peptide 100 µM
SXR [29] = biological target: T3, SXR; assay: Thermofluor thermal shift; SXR 6 µM with taxol 50 µM; peptide 100 µM
ER-β [30] = biological target: T4, ER-β; assay: Thermofluor thermal shift; ER-β 8 µM with estrone 20 µM; peptide 100 µM
SXR [31] = biological target: T3, SXR; assay: Thermofluor thermal shift; SXR 6 µM with 17-α-hydroxyprogesterone 50 µM; peptide 100 µM

| Molecule | Kd (SXR [1]) | ΔΔTm SRC1-NR2 (SXR [1]) | ΔTm ligand (SXR [1]) | Probability Agonist (statistical probability of agonist state) (SXR [1]) | ΔTm at 100 µM (SXR [1]) | fold activation (SXR [2]) | change in Tm stabilization from the receptor-ligand ΔTm (ER-β [3]) | change in Tm stabilization from the receptor-ligand ΔTm (ER-α [4]) | ΔΔTm (SXR [5]) | change in Tm stabilization from the receptor-ligand ΔTm (ER-β [6]) | ΔΔTm (SXR [7]) | ΔΔTm (SXR [8]) | change in Tm stabilization from the receptor-ligand ΔTm (ER-α [9]) | change in Tm stabilization from the receptor-ligand ΔTm (ER-α [10]) | ΔΔTm (SXR [11]) | change in Tm stabilization from the receptor-ligand ΔTm (ER-α [12]) | ΔΔTm (SXR [13]) | ΔΔTm (SXR [14]) | change in Tm stabilization from the receptor-ligand ΔTm (ER-β [15]) | ΔΔTm (SXR [16]) | also measured |
| --- | --- | --- | --- | --- | --- | --- | --- | --- | --- | --- | --- | --- | --- | --- | --- | --- | --- | --- | --- | --- | --- |
| C[C@]12C[C@H](O)[C@H]3[C@@H](CCC4=CC(=O)CC[C@@]43C)[C@@H]1CC[C@@H]2C(=O)CO [Corticosterone] | 1320 nM | 2.7 | 5 °C | 0.93 | 0.5 °C | 12 fold | – | – | – | – | – | – | – | – | – | – | – | – | – | – | – |
| CC[C@H](C)C(=O)O[C@H]1C[C@@H](C)C=C2C=C[C@H](C)[C@H](CC[C@@H]3C[C@@H](O)CC(=O)O3)[C@H]21 [Lovastatin] | 550 nM | 3.0 | 6.3 °C | 0.85 | 1.2 °C | 5-fold | – | – | – | – | – | – | – | – | – | – | – | – | – | – | – |
| co-repressor peptide NCoR-1 (from UniProt O75376 2044-2066) | – | – | – | – | – | – | 0 °C | 0 °C | 6.7 °C | -0.7 | 0.5 °C | 1 °C | 0 °C | -0.7 °C | 3.6 °C | 0.1 °C | 3.4 °C | 3.8 °C | 0.3 | 2.3 °C | change in Tm stabilization from the receptor-ligand ΔTm (ER-β [17]): 0.3 °C; ΔΔTm (SXR [18]): 3.7 °C; change in Tm stabilization from the receptor-ligand ΔTm (ER-α [19]): 0.1 °C; change in Tm stabilization from the receptor-ligand ΔTm (ER-β [20]): 0.4 °C; change in Tm stabilization from the receptor-ligand ΔTm (ER-α [21]): -0.6; change in Tm stabilization from the receptor-ligand ΔTm (ER-α [22]): -0.3; change in Tm stabilization from the receptor-ligand ΔTm (ER-β [23]): -0.4 °C; change in Tm stabilization from the receptor-ligand ΔTm (ER-α [24]): -0.1 °C; ΔΔTm (SXR [25]): 1.4 °C; ΔΔTm (SXR [26]): 1.2 °C; change in Tm stabilization from the receptor-ligand ΔTm (ER-β [27]): -0.7; ΔΔTm (SXR [28]): 3.6 °C; ΔΔTm (SXR [29]): 4.7 °C; change in Tm stabilization from the receptor-ligand ΔTm (ER-β [30]): -0.3; ΔΔTm (SXR [31]): 3.5 °C |
| LTERHKILHRLLQEGSPSD (peptide, UniProt Q15788 683-701, looked up, Peptide fragment of SRC-1) [co-activator peptide SRC1-NR2] | – | – | – | – | – | – | 3.4 | 4.9 | 2.9 | 2.6 | 2.7 | 4.6 | 0.8 | 5.5 | 2.9 | 0.2 | 3.3 | 3.5 | 0.2 | 3.9 | change in Tm stabilization from the receptor-ligand ΔTm (ER-β [17]): 0.4; ΔΔTm (SXR [18]): 3.3; change in Tm stabilization from the receptor-ligand ΔTm (ER-α [19]): -0.5; change in Tm stabilization from the receptor-ligand ΔTm (ER-β [20]): 0.2; change in Tm stabilization from the receptor-ligand ΔTm (ER-α [21]): 0.2; change in Tm stabilization from the receptor-ligand ΔTm (ER-α [22]): 3; change in Tm stabilization from the receptor-ligand ΔTm (ER-β [23]): 0.7; change in Tm stabilization from the receptor-ligand ΔTm (ER-α [24]): 4.5; ΔΔTm (SXR [25]): 2.9; ΔΔTm (SXR [26]): 3; change in Tm stabilization from the receptor-ligand ΔTm (ER-β [27]): 4.4; ΔΔTm (SXR [28]): 2.9; ΔΔTm (SXR [29]): 2.5; change in Tm stabilization from the receptor-ligand ΔTm (ER-β [30]): 3.8; ΔΔTm (SXR [31]): 3.3 |
